Assay [1] concerns P. aeruginosa P8. The assay can be described thus: Mouse model of acute lung infection, P. aeruginosa P8. The class given is in vivo, Pseudomonas aeruginosa. The settings on record: for survival: 300 μg ml^−1 and 30 μg ml^−1 (both concentrations), endpoint 24 h post-infection; for reduction of bacterial load in lung: 3 mg ml^−1 intranasal 1 h post-infection, culled 4.5 h post-infection (FIG. 1c); for reduction of bacterial numbers in lung: C57/BL6 mice, 3 mg ml^−1 intranasal 6 h pre-infection, culled 4 h post-infection (FIG. 1a); for Lowest active concentration tested: lowest concentration tested with which the treated mice survived to 24 h; for Corresponding molarity: molarity of lowest active concentration tested. As to the method: Study design. […] For all experiments 6 week-old, female, murine pathogen free C57/BL6 mice weighing 15-21 g were used (Charles Rivers Laboratories, UK). All mice received food and water ad libitum and were housed in groups during the experiments. Power calculations were used to predetermine sample size (n=6, for all treatment experiments). Mice were culled when required as determined by a scoring system or culled at the pre-determined 24 h time point. All mice, including outliers were included in the statistical analysis. Experiments were either carried out once only or repeated once (defined for each experiment).
(§1) Model of acute lung infection. Female C57/BL6 mice were inoculated intranasally with 25 μl of bacterial culture containing approximately 10^7 CFU of the selected P. aeruginosa strain^36. Antibiotic treatments were administered at either 6 h pre-infection or 1 h post-infection and were administered only once. Pyocins or tobramycin dissolved in PBS were administered via intranasal administration as described above. Two different end-points were used in these experiments. In order to determine a reduction in the bacterial load of the lungs compared to the untreated controls, all mice in the experiment were culled by carbon dioxide asphyxiation at the same time; 4-6 h post infection. To determine if mice could survive infection after pyocin or tobramycin treatment, mice were monitored closely, culled by carbon dioxide asphyxiation when required as determined by a scoring system or culled at the pre-determined 24 h time point. Uninfected mice, treated with pyocins, were used as controls in the first series of experiments in order to ensure no adverse effects from pyocin treatment. These controls were stopped in later experiments in order to reduce the number of animals used, once it was clear that the pyocins were not harmful. For CFU determination, lungs were removed aseptically and kept on ice in 750 μl of PBS until homogenised. Serial 10-fold dilutions of the homogenised lung were plated on Pseudomonas selective agar (20 g peptone, 1.5 g K2HPO4, 1.5 g MgSO4·7H2O, 10 ml glycerol, 15 g agar, 0.025 g Irgasan per litre) and incubated at 37° C. for 24 h and then room temperature for 24 h before the colonies were counted.

Assay [2] has as its system P. aeruginosa P17. The assay can be described thus: Mouse model of acute lung infection, P. aeruginosa P17. The class given is in vivo, Pseudomonas aeruginosa. The settings on record: for survival / protection: pyocin 3 mg ml^−1, endpoint 24 h, infected controls culled at 4 h. As to the method: as §1
(§2) Since strains of P. aeruginosa are phenotypically diverse, we tested the efficacy of the pyocins against three additional isolates: P. aeruginosa P17 and P. aeruginosa P5 (mucoid), both from cystic fibrosis patients and P. aeruginosa E2, an environmental isolate. Pyocin S2 was not active against P. aeruginosa P5 or P. aeruginosa E2 in vitro therefore was not used to treat these strains in vivo and similarly pyocin L1 was not used against P. aeruginosa P17. […] Lung homogenates from P. aeruginosa E2-infected AP41-treated mice contained high levels of viable bacteria, reduced only 10-fold relative to control mice (Table 1). […] Thus, pyocins show strong efficacy against diverse strains of P. aeruginosa with pyocin S5 treatment displaying the largest effect on reducing bacterial load.

Assay [3] has as its system P8AP41T. The assay can be described thus: Mouse model of acute lung infection, AP41 tolerant strain P8AP41T. In kind it is in vivo, Pseudomonas aeruginosa. The settings on record: 3 mg ml^−1 1 h post-infection; for bacterial numbers in lung homogenates: 24 h (FIG. 3b); for survival: endpoint 24 h, PBS controls culled 6 h post-infection (FIG. 3b). As to the method: as §1
(§3) In order to determine if pyocin tolerance or resistance was acquired upon pyocin treatment in vivo, viable bacteria recovered from mice that survived infection to the 24 h end-point, in all experiments discussed in this work, were tested for pyocin susceptibility. From these experiments no pyocin resistant colonies were isolated. […] Importantly, sensitivity to pyocins S5 and L1 were unaffected in vitro in this pyocin AP41-tolerant strain (FIG. 3a) and this was also shown to be the case in vivo when mice were infected with P8AP41T.

The subject of assay [4] is P. aeruginosa P5. The assay can be described thus: Pyocin activity in vitro against P. aeruginosa P5. In kind it is cell-based, Pseudomonas aeruginosa. As to the method: (§4) Pyocin sensitivity assays: overlay spot plate method. Soft agar overlay spot plates were performed using the method of ^35. 150 μl of test strain culture at OD600 nm=0.6 was added to 6 ml of 0.8% soft agar and poured over an LB agar plate. 5 μl of bacteriocin, lung homogenate or blood at varying concentrations was spotted onto the plates and incubated for 24 h at 37° C.
(§5) Since strains of P. aeruginosa are phenotypically diverse, we tested the efficacy of the pyocins against three additional isolates: P. aeruginosa P17 and P. aeruginosa P5 (mucoid), both from cystic fibrosis patients and P. aeruginosa E2, an environmental isolate.

Assay [5] relates to P. aeruginosa E2. The assay can be described thus: Pyocin activity in vitro against P. aeruginosa E2. In kind it is cell-based. As to the method:
as §4, §5

Assay [6] deals with P. aeruginosa. The following applies: in vivo; cited from earlier work.
For assay [7], the system named is P. aeruginosa P5 (mucoid). The assay can be described thus: Mouse model of acute lung infection, P. aeruginosa P5. In kind it is in vivo, Pseudomonas aeruginosa. As to the method:
as §1, §2

The test system of assay [8] is P. aeruginosa E2. The assay can be described thus: Mouse model of acute lung infection, P. aeruginosa E2. The class given is in vivo, Pseudomonas aeruginosa. As to the method:
as §1, §2

Assay [9] relates to P8AP41T. The assay can be described thus: Pyocin sensitivity in vitro (spot tests) of strain P8AP41T. The class given is cell-based, Pseudomonas aeruginosa. As to the method: as §4, §3
Assay [10] concerns collection of diverse environmental and clinical isolates. The assay can be described thus: Activity against a collection of diverse environmental and clinical isolates. In kind it is cell-based, Pseudomonas aeruginosa.
Where [11] appears, read: pyocin 3 mg ml^−1, treated mice survived to 24 h, no treatment 4.4 × 10^5 CFU/lung.

B1: Pyocin S2: S-type pyocin, SEQ ID NO: 1; targeting domain binds FpvAI, effector has DNase activity (protein, listed as Pseudomonas aeruginosa)
chain: MAVNDYEPGSMVITHVQGGGRDIIQYIPARSSYGTPPFVPPGPSPYVGTGMQEYRKLRSTLDKSHSELKKNLKNETLKEVDELKSEAGLPGKAVSANDIRDEKSIVDALMDAKAKSLKAIEDRPANLYTASDFPQKSESMYQSQLLASRKFYGEFLDRHMSELAKAYSADIYKAQIAILKQTSQELENKARSLEAEAQRAAAEVEADYKARKANVEKKVQSELDQAGNALPQLTNPTPEQWLERATQLVTQAIANKKKLQTANNALIAKAPNALEKQKATYNADLLVDEIASLQARLDKLNAETARRKEIARQAAIRAANTYAMPANGSVVATAAGRGLIQVAQGAASLAQAISDAIAVLGRVLASAPSVMAVGFASLTYSSRTAEQWQDQTPDSVRYALGMDAAKLGLPPSVNLNAVAKASGTVDLPMRLTNEARGNTTTLSVVSTDGVSVPKAVPVRMAAYNATTGLYEVTVPSTTAEAPPLILTWTPASPPGNQNPSSTTPVVPKPVPVYEGATLTPVKATPETYPGVITLPEDLIIGFPADSGIKPIYVMFRDPRDVPGAATGKGQPVSGNWLGAASQGEGAPIPSQIADKLRGKTFKNWRDFREQFWIAVANDPELSKQFNPGSLAVMRDGGAPYVRESEQAGGRIKIEIHHKVRIADGGGVYNMGNLVAVTPKRHIEIHKGGK
Regarding B1, in assay [1], the survival result was “survived until the endpoint of the experiment at 24 h post-infection”, the “reduction of bacterial load in lung” value is approximately 80 fold, the “reduction of bacterial numbers in lung” value was “approximately 25 fold” and the “Lowest active concentration tested” value turned out to be 30 µg/mL. The Corresponding molarity in assay [1] is 358 nM. Moreover, in assay [2], the survival / protection result is on record as “survived until the 24 h endpoint”. For the same molecule, the “bacterial count in lung, P17” value in assay [2] (setting [11]) is listed as “No colonies”. Moreover, in assay [3], the “bacterial numbers in lung homogenates” value was “significantly reduced bacterial numbers” and the survival entry is listed as “survived until the endpoint of the experiment at 24 h”. Moreover, the activity in vitro result in [4] is “not active”. Further, in assay [5], the activity in vitro entry is “not active”. Moreover, the “activity in an invertebrate model of infection” value in [6] was “active”.

B2: Pyocin AP41: S-type pyocin, SEQ ID NO: 18; effector has DNase activity (protein, listed as Pseudomonas aeruginosa)
chain: MSDVFDLGSMTTVATATGQYSFYTPPPPTPIPYLTYIARPGINKFDLPEGAKIKDLIKRYQYIGSQIPAAIMIRGVQEEIKKSTNTALANVGAIVDGELAYLASQKKEKLNPAEATPLQMASAEKAAAVELLASKQKELADARTIANAFFGYDPLTVNYVNVMNEIYGRREDKDFSFDNWSKSYSAAQKIRLIEAKISVLNSRSSALDGKVAELTRLQRLEDAQHAAEAARQTEAERLAQEQRQAEARRQAEEARRQAEAQRQAELQRLAEAEAKRVAEAEKKRQDEINARLQAIVVSESEAKRIEEIYKRLEEQDKISNPTVTTPPAVDAGSRVDDALAHTGTRVTSGGETGATGGSGRDVDTGTGQGGITARPVDVGSVSIPDRRDPKIPDQPRRDLGSLVPTFPDFPTFPSFPGVGVPAAAKPLIPAGGGAASVSRTLKTAVDLLSVARKTPGAMLGQVAAVVATMAVSSFWPKLNNGERQASFAIPVAELSPPLAVDWQAIAAAKGTVDLPYRLKTLNVDGSIQIIAVPTEPGSAAVPVRALTLDSASGTYKYTTTGPGGGTILVTPDTPPGQIDPSSSTPAVPRGPLIMPGTLLIPKEPQIESYPELDQREFNDGIYVYPEDSGIPPLYIVYRDPRDEPGVATGNGQPVTGNWLAGASQGDGVPIPSQIADQLRGKEFKSWRDFREQFWMAVSKDPSALENLSPSNRYFVSQGLAPYAVPEEHLGSKEKFEIHHVVPLESGGALYNIDNLVIVTPKRHSEIHKELKLKRKEK
Turning to B2, in assay [1], the survival entry is “survived until the endpoint of the experiment at 24 h post-infection”, the “reduction of bacterial load in lung” value is on record as approximately 130 fold, the “reduction of bacterial numbers in lung” value was approximately 650 fold and the “Lowest active concentration tested” value is 30 µg/mL. The molecule also returned a Corresponding molarity in [1] of 319 nM. Moreover, the survival / protection entry in assay [7] (pyocin 3 mg ml^−1, endpoint 24 h, infected controls culled at 4.5 h) was “successful”. In addition, in assay [7] (pyocin 3 mg ml^−1, treated mice survived to 24 h, no treatment 1.7 × 10^5 CFU/lung), the “bacterial count in lung, P5” value is listed as “No colonies”. For the same molecule, the “bacterial count in lung, P17” value in assay [2] (1 mouse that coughed up the treatment, culled at 4 h post-infection) is “^+1 mouse coughed up AP41 treatment and was culled at 4 h post-infection, bacterial count 1.3 × 10^5 CFU/lung”. In addition, the survival / protection entry in assay [2] is on record as “five out of six”. For the same molecule, the “bacterial count in lung, P17” value in assay [2] (setting [11]) was “No colonies”. The “reduction of viable bacteria in lung homogenates relative to control mice” value in assay [8] (pyocin 3 mg ml^−1, culled at 5.5 h post-infection) is 10 fold. Also, in assay [8] (pyocin 3 mg ml^−1, endpoint 24 h, infected controls culled at 5.5 h), the survival / protection result is given as “failed to afford protection”. In [8] (pyocin 3 mg ml^−1, mice culled at same time as control (5.5 h post-infection)), the “bacterial count in lung, E2” value is on record as 1.3 × 10^4 CFU/lung. Also, in assay [3], the “bacterial numbers in lung homogenates” value is “significantly reduced bacterial numbers” and the survival entry is “survived until the endpoint of the experiment at 24 h”. The “increased tolerance of isolate P8AP41T” value in assay [9] (single isolate from pyocin AP41 (3 mg ml^−1 post-infection) treated bacteria) was “approximately 1000 fold”. Also, in [9] (strain recovered from untreated control mice (P8AP41T*), FIG. 3a), the “susceptibility of P8AP41T during infection” value is reported as “remained tolerant”. Moreover, in assay [10], the “strains against which active” value was determined as 87%.

The values are drawn from patent US12162911B2, “Pulmonary administration of pyocins for treating bacterial respiratory infections” (priority 2014, dated 2024).
